Molecular target: T1, TRIM7-3F (TRIM7 with C-terminal 3×FLAG epitope) (human, UniProt Q9C029 1-511)
T1 construct: also called WT TRIM7-3F; 3×Flag-tagged TRIM7
Assay: co-IP with anti-HA beads from co-transfected 293T cells, Western blot

B1: HA-tagged MenV 2BC (other)
chain: PFTFKPRQRPVFQTQGAAVSSMAQTLLPNDLASKAMGSAFTALLDANEDAQKAMKIIKTLSSLSDAWENVKGTLNNPEFWKQLLSRCVQLIAGMTIAVMHPDPLTLLCLGVLTAAEITSQTSLCEEIAAKFKTIFTTPPPRFPVISLFQQQSPLKQVNDVFSLAKNLDWAVKTVEKVVDWFGTWVAQEEREQTLDQLLQRFPEHAKRISDLRNGMAAYVECKESFDFFEKLYNQAVKEKRTGIAAVCEKFRQKHDHATARCEPVVIVLRGDAGQGKSLSSQIIAQAVSKTIFGRQSVYSLPPDSDFFDGYENQFAAIMDDLGQNPDGSDFTTFCQMVSTTNLLPNMASLERKGTPFTSQLVVATTNLPEFRPVTIAHYPAVERRITFDYSVSAGPVCSKTEAGCKVLDVERAFRPTGDAPLPCFQNNCLFLEKAGLQFRDNRSKEILSLVDVIERAVTRIERKKKVLTAVQTLVAQ
notes: domain: 2BC
B1: no binding.
